The target of the test is PcPsiH, Psilocybe cubensis tryptamine 4-monooxygenase (cytochrome P450 enzyme) (Psilocybe cubensis) (UniProt P0DPA7). Briefly: cell-based or functional assay.

As to “PcCpr, putative Psilocybe cubensis cytochrome P450 reductase (enzyme)”, the psilocin titer is 135 mg/L and the psilocybin titer came to 117 mg/L. With “native S. cerevisiae cytochrome P450 reductase (Ncp1) (from UniProt P16603 2-691) (enzyme)”, the extracellular accumulation of tryptamine was found to be 90 mg/L.

(Values after US20220403428A1.)
